Results as given in patent US20050003397A1.

Target: BAT monoclonal antibody
Test: competition phage ELISA; BAT (6 µg/ml) pre-incubated with increasing synthetic Peptide A, binding to immobilized Peptide A phage read

IC50: 660 nM
Binder: PRRIKPRKIMLQ [Peptide A (synthetic peptide of SEQ ID NO 1)]
